Consider eleven proteins from PMC9775220, “Distal Mutations Shape Substrate-Binding Sites during Evolution of a Metallo-Oxidase into a Laccase” (ACS Catalysis, 2022).

Residue numbers refer to the chain shown, from its start. In names and notes the source's numbering stands.

Substrate in this data set: CCn1c(=NN=c2sc3cc(S(=O)(=O)O)ccc3n2CC)sc2cc(S(=O)(=O)O)ccc21
As to the kind of experiment: purified protein. It counts as biochemical, Aquifex aeolicus. The settings on record: pH 4, 40 °C.

Where [1] appears, read: 2F4-loop 5 (Met-loop cut to five residues).

B1: McoA (wild type) (Aquifex aeolicus VF5; F55S/I199T/I441L/M449T/P58S/R471G) (protein)
chain: LSKQSLNIPGYSLFSDGQRVSITAKWTTLEVIPGKSTDMLVYEIDNEYNPVIFLRKGQTFSADFVNNSGEDSIIHWHGFRAPWKSDGHPYYAVKDGETYSYPDFTIIDRSGTYFYHPHPHGRTGYQVYYGLAGMIIIEDEDEDNLKQALDLEYGVTDIPLIIQDKTFDSSGQLVYNPMGHMGFWGDTILVNLTPNPYMDVERKIYRFRILNGSNARPYRLALLRGNQRMRFWVIGVEGGLLDTPKEVNEILVAPGERIDILVDFRDASVNDVIKLYNFPHNLIGMGMIGMRMGMGMERGMGMGNGMNMDMGMADNSEFEVMEFRVTKDSAYDKSIPQRLSEVTPINTDGAQVQRITLGMRRMVFTINGETWEDGYANPQDINNPKVLFEQNNGDVVILEYVNNTGTYHPMHIHGFQFQVLERSLGPLGATDLGWKDTVIVAPMETVRIAVDMSHPYNEHQIYLLHCHILEHHDEGMMVNYRVNA
notes: 43-residue N-terminal Tat signal peptide removed in 2B3wsp and the shuffling parents (stated for wild type); expressed in E. coli Tuner delta-cueO from pET-21a(+); purified, Cu-loaded in vitro; monomer
In the case of B1, under “evolved variant 2F4”, the Km – broadly, the concentration of substrate that gives half-maximal velocity – was found to be 1500 ± 400 µM and the kcat (commonly the maximal rate divided by the concentration of active sites) is 273 ± 9 s⁻¹.

B2: McoA (wild type) (Aquifex aeolicus VF5; I441L) (protein)
chain: B1 chain with S12F, S15P, T156I, T406M, G428R
notes: as for B1
Regarding B2, under “wild-type background”, the Km was 1500 ± 200 µM and the kcat was determined as 79 ± 5 s⁻¹.

B3: McoA (wild type) (Aquifex aeolicus VF5) (protein)
chain: B1 chain with S12F, S15P, T156I, L398I, T406M, G428R
notes: as for B1
Regarding B3, the Km came to 1300 ± 200 µM and the kcat is 25 ± 3 s⁻¹.

B4: McoA (wild type) (Aquifex aeolicus VF5; F55S/I199T/I441L/M449T/P58S) (protein)
chain: B1 chain with G428R
notes: as for B1
B4: under “reversion G471R in 2F4”, the Km worked out at 6000 ± 1000 µM and the kcat came to 235 ± 9 s⁻¹.

B5: McoA (wild type) (Aquifex aeolicus VF5; P58S) (protein)
chain: B1 chain with S12F, T156I, L398I, T406M, G428R
notes: as for B1
Turning to B5, under “wild-type background”, the Michaelis constant (Km) amounted to 2500 ± 200 µM and the kcat was 75 ± 3 s⁻¹.

B6: McoA (wild type) (Aquifex aeolicus VF5; F55S/I199T/I441L/P58S/R471G) (protein)
chain: B1 chain with T406M
notes: as for B1
On to B6, for which, for the setting “reversion T449M in 2F4”, the Km worked out at 3100 ± 900 µM and the kcat turned out to be 99 ± 8 s⁻¹.

B7: McoA (wild type) (Aquifex aeolicus VF5; F55S) (protein)
chain: B1 chain with S15P, T156I, L398I, T406M, G428R
notes: as for B1
Consider B7, for which, under “wild-type background”, the Michaelis-Menten constant (Km) is 2400 ± 400 µM and the kcat stood at 67 ± 4 s⁻¹.

B8: McoA (wild type) (Aquifex aeolicus VF5; R471G) (protein)
chain: B1 chain with S12F, S15P, T156I, L398I, T406M
notes: as for B1
B8: under “wild-type background”, the Km is 2300 ± 200 µM and the kcat was 98 ± 4 s⁻¹.

B9: McoA (wild type) (Aquifex aeolicus VF5; M449T) (protein)
chain: B1 chain with S12F, S15P, T156I, L398I, G428R
notes: as for B1
For B9, for the setting “wild-type background”, the Km turned out to be 1000 ± 100 µM and the kcat was found to be 27 ± 1 s⁻¹.

B10: McoA (wild type) (Aquifex aeolicus VF5; I199T) (protein)
chain: B1 chain with S12F, S15P, L398I, T406M, G428R
notes: as for B1
Consider B10, for which, under “wild-type background”, the Km is 900 ± 200 µM and the kcat came out at 27 ± 5 s⁻¹.

B11: McoA (wild type) (Aquifex aeolicus VF5; DEL329-352/F55S/I199T/I441L/M449T/P58S/R471G) (protein)
chain: LSKQSLNIPGYSLFSDGQRVSITAKWTTLEVIPGKSTDMLVYEIDNEYNPVIFLRKGQTFSADFVNNSGEDSIIHWHGFRAPWKSDGHPYYAVKDGETYSYPDFTIIDRSGTYFYHPHPHGRTGYQVYYGLAGMIIIEDEDEDNLKQALDLEYGVTDIPLIIQDKTFDSSGQLVYNPMGHMGFWGDTILVNLTPNPYMDVERKIYRFRILNGSNARPYRLALLRGNQRMRFWVIGVEGGLLDTPKEVNEILVAPGERIDILVDFRDASVNDVIKLYNFPHNLIGMMGMADNSEFEVMEFRVTKDSAYDKSIPQRLSEVTPINTDGAQVQRITLGMRRMVFTINGETWEDGYANPQDINNPKVLFEQNNGDVVILEYVNNTGTYHPMHIHGFQFQVLERSLGPLGATDLGWKDTVIVAPMETVRIAVDMSHPYNEHQIYLLHCHILEHHDEGMMVNYRVNA
notes: as for B1
For the protein B11, under setting [1], the Km was 3800 ± 600 µM and the turnover number (kcat) was determined as 133 ± 20 s⁻¹.
